The text below walks through data of IntAct's records for PubMed 28202711.

Test [1] concerns the target 1433g_human YWHAG (UniProt P61981).
For test [2] the target is unchanged. This is another data set of the same source.

UniProt P61981, sequence (P61981 whole entry): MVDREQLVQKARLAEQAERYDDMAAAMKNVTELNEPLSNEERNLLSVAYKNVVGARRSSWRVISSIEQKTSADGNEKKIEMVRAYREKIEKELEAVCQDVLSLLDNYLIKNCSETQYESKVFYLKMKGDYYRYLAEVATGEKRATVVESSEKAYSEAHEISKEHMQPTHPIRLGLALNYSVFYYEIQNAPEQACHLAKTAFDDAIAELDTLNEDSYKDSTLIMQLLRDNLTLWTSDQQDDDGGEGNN

For the substance “Leucine-rich repeat serine/threonine-protein kinase 2 (Homo sapiens), Q5S007 R1441C”, the “effect of a mutation on the interaction” value with 1433g_human YWHAG [1] was “decreasing interaction strength”.

Turning to “Leucine-rich repeat serine/threonine-protein kinase 2 (Homo sapiens), Q5S007 R1441H”, in the test with 1433g_human YWHAG [1], the “effect of a mutation on the interaction” value is recorded as “decreasing interaction strength”.

In the case of “Leucine-rich repeat serine/threonine-protein kinase 2 (Homo sapiens), Q5S007 R1441G”, the “effect of a mutation on the interaction” value in the test with 1433g_human YWHAG [2] was “with no effect”; with 1433g_human YWHAG [1] it was “decreasing interaction strength”.
